Experimental data as given in article PMC7582951.

Target: C0-C1-C2 region of the glutamate NMDAR NR1 subunit (mouse) (UniProt P35438)
Assay: pull-down; competition: 0.2 uM CaM with NR1 C0-C1-C2 covalently attached to NHS-activated Sepharose, 2.5 mM CaCl2, increasing concentrations of σ1R WT or E102Q; bound CaM and σ1R by western blot

UniProt P35438, sequence (P35438 834-938): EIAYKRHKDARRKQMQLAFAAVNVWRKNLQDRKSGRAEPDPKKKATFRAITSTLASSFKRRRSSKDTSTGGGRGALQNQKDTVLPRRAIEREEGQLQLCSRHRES

concentration that abolished the binding of 200 nM CaM to NR1	concentration that prevented the binding of 200 nM CaM to NR1	Substance
60 nM		sigma receptor type 1 (σ1R), wild-type (from UniProt O55242 1-223) (natural protein)
	< 0.2 nM	sigma receptor type 1 (σ1R) E102Q mutant (from UniProt O55242 1-223) (natural protein)
